Results as given in the DeepSol protein solubility set.

Assay: soluble on expression in E. coli; label from the status in PepcDB or PDB records

| Sequence | soluble on expression in E. coli |
| --- | --- |
| MGSDKIHHHHHHMFEKRHRITLLFNANKAYDRQVVEGVGEYLQASQLEWDIFIEEDFRARIENIKEWLGDGVIADYDDPEIEKLLADVHVPIVGVGGSYHQPEQYPPVHYIATDNAALVESAFLHLKEKGVHRFAFYGLPASSGKRWAVEREYAFCQLVAKEKYRGVVYQGLETAPENWQHAQNRLADWLQTLPPQTGIIAVTDARARHVLQACELLHIPVPEKLCVIGIDNEELTRYLSRVALSSVAQGTRQMGYQAAKLLHRLLNNEALPLQRQLIPPMRVVERRSTDYRSLNDPSVIQAMHYIRNNACKGIKVEQVLDAVGISRSNLEKRFKEEVGETIHTVIHSEKLEKARSLLVSTSLSINEISQMCGYPSLQYFYSVFKKEYDVTPKEYRDRHSEVML | not soluble |
| SLAHIVTLNTPLREDWLAQLADVVTNPDELLHLLQIEADENLRAGQDARRLFALRVPRAFIARMEKGNPDDPLLRQVLTSRDEFIVAPGFSTDPLEEQHSVVPGLLHKYQNRALLLVKGGCAVNCRYCFRRHFPYAENQGNKRNWTVALEYIAAHPELDEIIFSGGDPLMAKDHELDWLLTQLEAIKHVKRLRIHSRLPIVIPARITDELVARFDQSRLQILLVNHINHANEVDEAFGLAMKKLRHVGVTLLNQSVLLRGVNDNARTLANLSNALFDAGVMPYYLHVLDKVQGAAHFMVTDDEARQIMRELLTLVSGYMVPRLAREIGGEPSKTPLDLQLRQC | not soluble |
| MSLVAVRSAHINKAGEFDPEKWIASLGITSQKSCECLAETWAYCLQQTQGHPDASLLLWRGVEMVEILSTLSMDIDTLRAALLFPLADANVVSEDVLRESVGKSVVNLIHGVRDMAAIRQLKATHTDSVSSEQVDNVRRMLLAMVDDFRCVVIKLAERIAHLREVKDAPEDERVLAAKECTNIYAPLANRLGIGQLKWELEDYCFRYLHPTEYKRIAKLLHERRLDREHYIEEFVGHLRAEMKAEGVKAEVYGRPKHIYSIWRKMQKKNLAFDELFDVRAVRIVAERLQDCYAALGIVHTHYRHLPDEKDDYVANPKPNGYQSIHTVVLGPGGKTVEIQIRTKQMHEDAELGVAAHWKYKEGAAAGGARSGHEDRIAWLRKLIAWQEEMADSGEMLDEVRSQVFDDRVYVFTPKGDVVDLPAGSTPLDFAYHIHSDVGHRCIGAKIGGRIVPFTYQLQMGDQIEIITQKQPNPSRDWLNPNLGYVTTSRGRSKIHAWFRKQDRDKNILAGRQILDDELEHLGISLKEAEKHLLPRYNFNDVDELLAAIGGGDIRLNQMVNFLQSQFNKPSAEEQDAAALKQLQQKSYTPQNRSKDNGRVVVEGVGNLMHHIARCCQPIPGDEIVGFITQGRGISVHRADCEQLAELRSHAPERIVDAVWGESYSAGYSLVVRVVANDRSGLLRDITTILANEKVNVLGVASRSDTKQQLATIDMTIEIYNLQVLGRVLGKLNQVPDVIDARRLHGSEGHHHHHH | not soluble |
| MSLSSKDLKLSTDVCEQILRVVSRSNRLEELVLENAGLRTDFAQKLASALAHNPNSGLHTINLAGNPLEDRGVSSLSIQFAKLPKGLKHLNLSKTSLSPKGVNSLSQSLSANPLTASTLVHLDLSGNVLRGDDLSHMYNFLAQPNAIVHLDLSNTECSLDMVCGALLRGCLQYLAVLNLSRTVFSHRKGKEVPPSFKQFFSSSLALMHINLSGTKLSPEPLKALLLGLACNHNLKGVSLDLSNCELRSGGAQVLEGCIAEIHNITSLDISDNGLESDLSTLIVWLSKNRSIQHLALGKNFNNMKSKNLTPVLDNLVQMIQDEESPLQSLSLADSKLKTEVTIIINALGSNTSLTKVDISGNGMGDMGAKMLAKALQINTKLRTVIWDKNNITAQGFQDIAVAMEKNYTLRFMPIPMYDASQALKTNPEKTEDALQKIENYLLRNHETRKYLQEQAYRLQQGIVTSTTQQMIDRICVKVQDHLNSLRNCGGDAIQEDLKSAERLMRDAKNSKTLLPNLYHVGGASWAGASGLLSSPIQETLESMAGEVTRVVDEQLKALLESMVDAAENLCPNVMKKAHIRQDLIHASTEKISIPRTFVKNVLLEQSGIDILNKISEVKLTVASFLSDRIVDEILDALSHCHHKLADHFSRRGKTLPQQEGHHHHHH | not soluble |
| MPQSLISELHTQYAQFVRKHPHAERDFSDALEDVLTDAGLTYDRVSARIKDWHSLKTKARKKNAQGAFIYPHPWDDVHDIIGVRITTLHSTEIPQIIEALADVFTVERSVDKTALTRISGSFGYGSHHLILKIDDRVKDLNNYVGMVFEVQIRTVLQHAWAEFEHDIRYKRSGDLDPQIDRAFTLAAGLIELADQQFDLIAAIQEPQKHSPNLEVDITAETLPGVIAMLVGSRFPQSRSEHYRWLEELLFAHSITTAAQLKELLNDRDIEAVRKALNYKFKPGQVRIIDDLLLYRYGTKHIEATGETGKNPRLRLPRLNERLRILNKHAPRNRSDLQQS | not soluble |
| MGSDKIHHHHHHMGNRRGFLKMSASLAAAPLIPESSAVSNELDIPVSNKRPHELARDEAHWRAVGRLYSIQEEIINLEHGYWGQMSIPVEQALARHTHRVNRELSWYARREYDRDFLKARAAVADALGVSVEELMLTRNATESFVNLITQYDELSSGNAILWADADYPEFKRMMSWLAESRQVRGTMLSLPAAGTDEDYIRIYREAFDALPDLKLMLLTHVSNQHGLVLPVREIAAIAKCRGIHVICDCAQSWGLLDFTLDDLNVDWAVFNLHKWIGSPVGVGALYMRHGTLVPVRPFPGEDSSDTDVANRVHLATSDFASFLTVPDALAFHRAIGGANKQARLNYLREAWVASLEGSSAVEVLGATGSKNASGMGAFRLRGQTSKVQVSALQTRLETEFRIFTVVRNDLASGACIRVTPQVFTPLEHVQALADAIVEISVTG | not soluble |
| MAQMTMVQAITDALRIELKNDPNVLIFGEDVGVNGGVFRATEGLQAEFGEDRVFDTPLAESGIGGLAIGLALQGFRPVPEIQFFGFVYEVMDSICGQMARIRYRTGGRYHMPITIRSPFGGGVHTPELHSDSLEGLVAQQPGLKVVIPSTPYDAKGLLISAIRDNDPVIFLEHLKLYRSFRQEVPEGEYTIPIGKADIKREGKDITIIAYGAMVHESLKAAAELEKEGISAEVVDLRTVQPLDIETIIGSVEKTGRAIVVQEAQRQAGIAANVVAEINERAILSLEAPVLRVAAPDTVYPFAQAESVWLPNFKDVIETAKKVMNF | soluble |
| MSKLKIAVSDSCPDCFTTQRECIYINESRNIDVAAIVLSLNDVTCGKLDEIDATGYGIPVFIATENQERVPAEYLPRISGVFENCESRREFYGRQLETAASHYETQLRPPFFRALVDYVNQGNSAFDCPGHQGGEFFRRHPAGNQFVEYFGEALFRADLCNADVAMGDLLIHEGAPCIAQQHAAKVFNADKTYFVLNGTSSSNKVVLNALLTPGDLVLFDRNNHKSNHHGALLQAGATPVYLETARNPYGFIGGIDAHCFEESYLRELIAEVAPQRAKEARPFRLAVIQLGTYDGTIYNARQVVDKIGHLCDYILFDSAWVGYEQFIPMMADCSPLLLDLNENDPGILVTQSVHKQQAGFSQTSQIHKKDSHIKGQQRYVPHKRMNNAFMMHASTSPFYPLFAALNINAKMHEGVSGRNMWMDCVVNGINARKLILDNCQHIRPFVPELVDGKPWQSYETAQIAVDLRFFQFVPGEHWHSFEGYAENQYFVDPCKLLLTTPGIDARNGEYEAFGVPATILANFLRENGVVPEKCDLNSILFLLTPAEDMAKLQQLVALLVRFEKLLESDAPLAEVLPSIYKQHEERYAGYTLRQLCQEMHDLYARHNVKQLQKEMFRKEHFPRVSMNPQEANYAYLRGEVELVRLPDAEGRIAAEGALPYPPGVLCVVPGEIWGGAVLRYFSALEEGINLLPGFAPELQGVYIEEHDGRKQVWCYVIKPRDAQSTLLKGEKL | soluble |
| MWYGLGLAFLGGIFRIFPFDMEHTITRQIFCPWLFAFSMTRKQFQGRKPYNYLASFLLFQCRLKESFHGQLVKPIVSWNLWTHRYHNGCFR | not soluble |
| MGHHHHHHSHMLRGMARMGGQRRLKALAAPRFWPILRKEYKWAVKPRPGPHPAEKSLPLLLIVRNVLGYAQTAREARKLISEGHFRVDGVVRKDYKFPVGFMDVIEVVDTGEKFRMLPYPVKFFKLHPIPEEEGDLKPVRIENKTTVKGGHVQLNLHDGRNILVRVKDPRNPVEDVYRTMDTLLITVPGQEIKGHIKFGEGAIAIIVGGRNVGRVGVVKSVQKGWGRKRTLVTLEDASGNLFQTSLDYVFVIGLDRPVISLPEGAWK | soluble |
| MGSDKIHHHHHHMSTLENVHASPIHFMSKPAEIEHTQRPLNEASHAPGYIYGDPDVLRREKERIFMKDWLCIAHVDELPNPGDFVTHTVIDEPVLIVRNRSGVLQAFYNQCRHRGVEVAEGRGNAKIFKCPYHAWSYDLDGKLIGVPFMKEAQGFDQKNCSLKPVRLDTWGGFIHISFDPDAEPLSSYMAEYEQEFGMLRQGELRLGLRWETDFDCNWKFVYENLMDIYHVGVTHADTIGRYQDQSSYRYLQLPRGRASIHYRAKTMSETGSSLFGRLPWIDDDSFARIGYLPPNLTMLARCDYVRPVTHWPTAVNRTHSVAYFLFPEDKIADPQFQEKIQTYVKFVEQVLDEDRGMILSLQRAMNTRGFEPGRMSFMENAIHHALGYHLERLFGPQSA | not soluble |
| MGSDKIHHHHHHMSAVTESVLESIISPVTMSEFLEEYWPVKPLVARGEVERFTSIPGFEKVRTLENVLAIYNNPVMVVGDAVIEESEGITDRFLVSPAEALEWYEKGAALEFDFTDLFIPQVRRWIEKLKAELRLPAGTSSKAIVYAAKNGGGFKAHFDAYTNLIFQIQGEKTWKLAKNENVSNPMQHYDLSEAPYYPDDLQSYWKGDPPKEDLPDAEIVNLTPGTMLYLPRGLWHSTKSDQATLALNITFGQPAWLDLMLAALRKKLISDNRFRELAVNHQSLHESSKSELNGYLESLIQTLSENAETLTPEQIFQSQDSDFDPYQSTQLVFRQLLTSYKF | soluble |
| MGHHHHHHSHASELQQHVYDRAHLLSKAEIGKLESLSAKLGAKRDTDFIIITTKSTNGEDIADYTGDFYDRYGKGSTAILTIDMTNREVFIAGFKKAEQYLDNSRLNSIRNTISSDLSNENYFEAFETYIQLSYKDMGIKPGVNPDNI | not soluble |
| MSLSPPKPSALAHVPGDEGWPIIGRTLAVLADPKGEVEKMARTYGPVYRSRVLGETSITLLGPEANELVLFDNTKLFSSTHGWGPILGRLFPRGLMMLDFDEHRLHRRTLSVAFKAGPMQSYLAELNAGIAHRVAEWRARPGEMLCYPAMKQLTLDLAATSFLGTAIGAETEEVNRAFIDMVAASVAPIRKPWPGTAMARGVKGRQRIVAYFAEQIPIRRAKGGDDLFSQLCRATHDDGALLSNQAIIDHMSFLMMAAHDTLTSSLTSFVAALAAHPEWQQKLREEIAGLGLKPGEPISFEQLDALPLTEMAFKEAMRLRPPVPSLPRRATRAFSFKGYTIPAGTMVAVNPLFTHHMPEIWPNPDQFDPLRFTDEASRGRHRFAWIPYGGGAHMCLGLNFAYMQAKCFAVHLLQHLDLSLPPNYQASWQMWPIPKPKDGLRVNVAPLNEGHHHHHH | soluble |
| MGSDKIHHHHHHMILLNYSQCFCLHNESRQKIAPSCWLNIGVHYMRIQQLRDLLEYVANCRLDMAQLYGRLNNQADSARVKMMLEYFESHQKHVAEKLRDYMDEAPVRVLDTWYKDFVFEDFTKRCQDTMLPANMNEDDVLNLHLDLENRLIGLLEKTVNSTTAEDARTALEGLIRVEKIQQQRLVHSTIRMDDI | not soluble |
| MAHHHHHHMQDHMFAKSGVPANGAGLGQNYYTRDLITEVPTIIQIVPVSSEALATQRSPPKGTSDTFKISLDDVEPTAGWLSDRNNASLDICFMHSFGKCYGKIREKDPRTCHQIHVKRNVLDNLRKYYTNPQRNYFCRTMKANVTEKFAQVLSLLARRRIGLRYLEFRTEDIEVTAGSTEYEVQYRLWLVSDVEPQSRSRAQAANILTDNFISSSNLCWDFALTGRCCKGASCPDLHGHVAKALTKDRYVKAALAEMGKKDSLVPPTETTQPGKTPRVCQPSTSAPQQFPPPPPMPQQCASFIVSSPISPPYCFSSLPAASGMSAPSPNPTLAAFPLDMSSLQGTPCFLVDKGSDNVFRLITQSQFASFGNDAS | not soluble |
